“Also recorded” adds a separate entry of the source.
B1: TNS3-WT: wild-type tensin3 (Homo sapiens), N-terminally labeled with GFP or mCherry, expressed in cells (protein, UniProt Q68CZ2 1-1445, looked up)
chain: MEEGHGLDLTYITERIIAVSFPAGCSEESYLHNLQEVTRMLKSKHGDNYLVLNLSEKRYDLTKLNPKIMDVGWPELHAPPLDKMCTICKAQESWLNSNLQHVVVIHCRGGKGRIGVVISSYMHFTNVSASADQALDRFAMKKFYDDKVSALMQPSQKRYVQFLSGLLSGSVKMNASPLFLHFVILHGTPNFDTGGVCRPFLKLYQAMQPVYTSGIYNVGPENPSRICIVIEPAQLLKGDVMVKCYHKKYRSATRDVIFRLQFHTGAVQGYGLVFGKEDLDNASKDDRFPDYGKVELVFSATPEKIQGSEHLYNDHGVIVDYNTTDPLIRWDSYENLSADGEVLHTQGPVDGSLYAKVRKKSSSDPGIPGGPQAIPATNSPDHSDHTLSVSSDSGHSTASARTDKTEERLAPGTRRGLSAQEKAELDQLLSGFGLEDPGSSLKEMTDARSKYSGTRHVVPAQVHVNGDAALKDRETDILDDEMPHHDLHSVDSLGTLSSSEGPQSAHLGPFTCHKSSQNSLLSDGFGSNVGEDPQGTLVPDLGLGMDGPYERERTFGSREPKQPQPLLRKPSVSAQMQAYGQSSYSTQTWVRQQQMVVAHQYSFAPDGEARLVSRCPADNPGLVQAQPRVPLTPTRGTSSRVAVQRGVGSGPHPPDTQQPSPSKAFKPRFPGDQVVNGAGPELSTGPSPGSPTLDIDQSIEQLNRLILELDPTFEPIPTHMNALGSQANGSVSPDSVGGGLRASSRLPDTGEGPSRATGRQGSSAEQPLGGRLRKLSLGQYDNDAGGQLPFSKCAWGKAGVDYAPNLPPFPSPADVKETMTPGYPQDLDIIDGRILSSKESMCSTPAFPVSPETPYVKTALRHPPFSPPEPPLSSPASQHKGGREPRSCPETLTHAVGMSESPIGPKSTMLRADASSTPSFQQAFASSCTISSNGPGQRRESSSSAERQWVESSPKPMVSLLGSGRPTGSPLSAEFSGTRKDSPVLSCFPPSELQAPFHSHELSLAEPPDSLAPPSSQAFLGFGTAPVGSGLPPEEDLGALLANSHGASPTPSIPLTATGAADNGFLSHNFLTVAPGHSSHHSPGLQGQGVTLPGQPPLPEKKRASEGDRSLGSVSPSSSGFSSPHSGSTISIPFPNVLPDFSKASEAASPLPDSPGDKLVIVKFVQDTSKFWYKADISREQAIAMLKDKEPGSFIVRDSHSFRGAYGLAMKVATPPPSVLQLNKKAGDLANELVRHFLIECTPKGVRLKGCSNEPYFGSLTALVCQHSITPLALPCKLLIPERDPLEEIAESSPQTAANSAAELLKQGAACNVWYLNSVEMESLTGHQAIQKALSITLVQEPPPVSTVVHFKVSAQGITLTDNQRKLFFRRHYPVNSVIFCALDPQDRKWIKDGPSSKVFGFVARKQGSATDNVCHLFAEHDPEQPASAIVNFVSKVMIGSPKKV
modifications: full-length N-terminal GFP or mCherry tag
notes: wild-type tensin3 (Homo sapiens), N-terminally labeled with GFP or mCherry, expressed in cells
B2: endogenous tensin3: endogenous tensin3 in primary human foreskin fibroblasts (protein, UniProt Q68CZ2 1-1445, looked up)
Tensin-3: B1 chain

Columns and labels:
[1] = system: NIH3T3 cells; test: tensin3 condensate formation, NIH3T3 cells; format: cell-based, mouse; conditions: n = 181 cells (WT), 168 cells (L702E)
Protocol: (§1) To establish a correlation between tensin3 expression and condensation formation, a maximum intensity Z-projection was performed on Z-stack images of NIH3T3 cells (step depth 0.2 μm). The integrated fluorescence intensity was measured by normalizing the mean pixel intensity of each cell to the average of all values in cells expressing mCh-TNS3. To measure the condensate coverage in NIH3T3 cells, the images were background-subtracted (rolling ball) and then thresholded. This was followed by the Analyse Particles function in FIJI/ImageJ to select round condensate structures (circularity 0.7–1.0) ([Bussi et al., 2023]; [Dumelie et al., 2024]) with a size larger than 0.1 μm^2. The same settings were applied to quantify the number of condensates in NIH3T3 and HFF cells.
The percentage of NIH3T3 cells transfected with mCh-TNS3 that form phase-separated condensates was quantified manually in images (610 × 499 μm) acquired with a 20× objective. To quantify the mean radius (R) of the condensates, the area covered by the condensates was divided by the number of condensates for each cell to obtain the mean size (A) of the condensates, followed by the formula of R = √(A/3.14).

[2] = system: β1 integrin, TLNKO cells; test: β1 integrin activation by flow cytometry, TLNKO cells; format: cell-based
Protocol: To measure the level of β1 integrin activation, TLNKO cells were transfected in a 6-well plate for flow cytometry analysis. Cells were collected, washed, and resuspended in ice-cold staining buffer (1% BSA in PBS) before incubation with 9EG7 antibody (diluted 1:200 in staining buffer) for 1 h on ice. The cells were then washed three times with staining buffer. Alexa Fluor Plus 647 goat anti-rat (1:500 dilution in staining buffer, Invitrogen) secondary antibody was used to incubate the cells for 45 min on ice, before being washed twice with staining buffer and once with PBS. The cells were then fixed with 4% PFA for 15 min before a final wash with PBS. Flow cytometry analysis was performed using a Fortessa system (BD Biosciences) and FlowJo software.

[3] = system: NIH3T3 cells; test: adhesion stability under blebbistatin, NIH3T3 cells; format: cell-based, mouse; conditions: blebbistatin 50 µM, 60 min; n = 64 (WT), 49 (L702E), 62 (ΔPTB), 71 (Cterm) cells
Protocol: (§2) Cells were fixed in 4% paraformaldehyde (PFA, Sigma-Aldrich), which had been prewarmed to 37°C for 15 min before being washed three times with PBS. For immunofluorescence staining, cells were permeabilized with 0.5% Triton X-100 (Sigma-Aldrich) at room temperature for 5 min before being washed three times with PBS. Blebbistatin (Tocris Bioscience) was diluted in dimethyl sulfoxide (Sigma-Aldrich) and used at a final concentration of 50 μM. […]
(§3) Analysis of cell adhesion sites, FN fibrils, and LLPS condensates was performed using FIJI/ImageJ (version 1.54f) software ([Schindelin et al., 2012]). […] Prior to adhesion quantification, the images were background-subtracted using a rolling ball algorithm, followed by thresholding of adhesion sites and Analyse Particles functions in FIJI/ImageJ to quantify adhesions. Adhesion sites with sizes between 0.4 and 10 μm^2 were counted, except for adhesions in blebbistatin-treated cells, which were counted with sizes between 0.2 and 4 μm^2. […]

[4] = system: NIH3T3 cells; test: client protein recruitment to tensin3 condensates; format: cell-based, mouse; conditions: co-expressed or endogenous
Description: Since the observed tensin3 condensates were derived from adhesion sites in a talin-regulated mechanosensitive manner, we wondered whether these condensates contain other adhesion components or signaling molecules. To address this question, we examined a selection of cell–matrix adhesion proteins that have been reported by others to be present in LLPS condensates. These proteins include LIMD1 ([Wang et al., 2021]), kindlin2 ([Hsu et al., 2023]), talin ([Hsu et al., 2023]; [Litschel et al., 2024]), KANK ([Guo et al., 2023]), tensin1 ([Lee et al., 2023]), vinculin ([Litschel et al., 2024]), and GIT1 ([Zhu et al., 2020]). We added the actin regulatory RhoGAP DLC1 to this selection, as it is known to bind tensin ([Liao et al., 2006]; [Shih et al., 2015]), and the RNA regulatory protein GIGYF1, which we had previously identified alongside many of the aforementioned proteins in tensin BioID datasets ([Atherton et al., 2022]). We also added stress granule components G3BP1 ([Tourrière et al., […]]) and TDP-43 ([Colombrita et al., 2009]). These proteins were either co-expressed as fluorescently tagged proteins (Fig. S4 I) or, where antibodies were available, probed endogenously in cells that formed GFP-TNS3 condensates (Fig. 8 A).
(§4) Cells were fixed in 4% paraformaldehyde (PFA, Sigma-Aldrich), which had been prewarmed to 37°C for 15 min before being washed three times with PBS. For immunofluorescence staining, cells were permeabilized with 0.5% Triton X-100 (Sigma-Aldrich) at room temperature for 5 min before being washed three times with PBS. Blebbistatin (Tocris Bioscience) was diluted in dimethyl sulfoxide (Sigma-Aldrich) and used at a final concentration of 50 μM. The following primary antibodies were diluted in 1% bovine serum albumin (BSA, Sigma-Aldrich): mouse anti-α5 integrin (SNAKA51, 1:100, NBP2-50146; Novus Biologicals), rat anti-β1 integrin (9EG7, 1:200; 553715; BD Biosciences), mouse anti-FN (IST-9, 1:100, ab6328; Abcam), rabbit anti-tensin3 (1:200, HPA055338; Atlas), mouse anti-EEA1 (1:500, 68065-1-IG; Proteintech), mouse anti-LAMP1 (1:200, ab320851; Abcam), mouse anti-paxillin (349, 1:400, mab3060; Sigma-Aldrich), rabbit anti-talin1 (1:200, 82856-4-RR; Proteintech), mouse anti-vinculin (hVin1, 1:500, V9264; Sigma-Aldrich), rabbit anti-KANK2 (1:100, HPA015643; Sigma-Aldrich), rabbit anti-kindlin2 (1:100, 11453-1-AP; Proteintech), rabbit anti-GIT1 (1:200, 26247-1-AP; Proteintech), mouse anti-phosphotyrosine (4G10, 1:200, 05-321X; Sigma-Aldrich), rabbit anti-G3BP1 (1:600, 13057-2-AP; Proteintech), rabbit anti-TDP43 (1:400, 10782-2-AP; Proteintech), and rabbit anti-GIGYF1 (1:400, ab121784; Abcam). […]

[5] = system: active β1 integrin, U2OS TNS3KO cells; test: β1 integrin-positive adhesions, U2OS TNS3KO cells; format: cell-based, human; conditions: FN-coated, overnight; 9EG7
Protocol: as §2, §3

[6] = system: NIH3T3 cells; test: condensates on soft vs stiff PDMS, NIH3T3 cells; format: cell-based, mouse; conditions: 1.5 kPa vs 28 kPa FN-coated PDMS, overnight
Protocol: (§5) Imaging dishes equipped with 40 µm-thick PDMS substrates (1.5 and 28 kPa) were purchased from ibidi. PDMS dishes were coated with 30 μg/ml FN for 1 h, followed by three washes with PBS. Dishes were incubated with DMEM for 10 min to equilibrate before cells were plated and incubated overnight at 37°C.
as §1

[7] = system: TLNKO cells; test: cell spreading of TLNKO cells; format: cell-based; conditions: tensin3 expressed alone in TLNKO cells
Protocol: as §4

[8] = system: active β1 integrin, TLNKO cells; test: 9EG7-positive (active β1 integrin) adhesions, TLNKO cells; format: cell-based; conditions: co-expressed with GFP-TLN1, vs talin1 and vector control
Protocol: as §2, §3

[9] = system: U2OS TNS3KO cells; test: adhesion stability under blebbistatin, U2OS TNS3KO cells; format: cell-based, human; conditions: blebbistatin 50 µM
Protocol: as §4, §3

[10] = system: U2OS TNS3KO cells; test: α5 integrin-positive FBs, rescue of TNS3KO cells; format: cell-based, human; conditions: FN-coated, overnight; SNAKA51 antibody
Protocol: as §2, §3

[11] = system: HFF cells; test: endogenous tensin3 condensates on soft vs stiff PDMS, HFF cells; format: cell-based, human; conditions: 1.5 kPa vs 28 kPa FN-coated PDMS, overnight; n = 33 and 40 cells
Protocol: as §5, §1

Molecule	Spearman's r, expression level vs condensate coverage [1]	integrin activation, flow cytometry ([2]; co-expressed with GFP-TLN1, vs mCh-vector, triplicate)	rescue of integrin activation ([2]; tensin3 expressed alone in TLNKO cells, 9EG7)	construct-positive adhesions after blebbistatin [3]	proteins detected in condensates [4]	proteins absent from condensates ([4]; listed as GFP-TNS3)	rescue of adhesion formation [5]	condensates on soft vs stiff substrate [6]	rescue of cell spreading [7]	fold change in 9EG7-positive adhesion sites [8]	subcellular localization of construct under blebbistatin [9]	adhesion stability under actomyosin inhibition ([9]; 60 min)	α5 integrin-positive adhesions [10]	increase in tensin3 spheres on soft vs stiff substrate [11]
B1	0.8773	increased integrin activation	did not rescue cell spreading (Fig. S3 A) or integrin activation	largely remain after blebbistatin treatment	talin1 and talin2, vinculin, tensin1, and LIMD1, together with the microtubule-targeting protein KANK1 and KANK2, and DLC1 and GIGYF1	kindlin2 and GIT1, which regulate membrane protrusion ([Böttcher et al., 2017]; [Manabe et al., 2002]), were absent; also recorded: negative for G3BP1, TDP-43 (Fig. S4 J), or tyrosine phosphorylation	fully rescued adhesion formation	significant twofold increase	did not rescue cell spreading	fivefold increase in adhesion sites	remained in adhesion structures	remained present despite actomyosin inhibition	α5 integrin-positive adhesions in the peripheral and central areas of the cells	
B2														3.6 fold

Reference: publication PMC12637021, “Talin–tensin3 interactions regulate fibrillar adhesion formation and tensin3 phase separation” (The Journal of Cell Biology, 2025)
